Paper PMC11236828 (Bioresources and Bioprocessing, 2024)

Columns and labels:
Formate oxidase (FOx) = molecular target: T1, Formate oxidase (FOx) (Aspergillus oryzae, UniProt Q2UD26); experiment: UV-visible absorption spectra of purified enzyme; format: binding; conditions: 4 °C
T1 construct: gene AO090012000349; synthetic gene in pET28a(+) (NdeI-HindIII), expressed in E. coli BL21(DE3), purified on Ni-Sepharose; His tag cleavage not mentioned; contains FAD / 8-formyl FAD
T1 sequence (Q2UD26 2-578): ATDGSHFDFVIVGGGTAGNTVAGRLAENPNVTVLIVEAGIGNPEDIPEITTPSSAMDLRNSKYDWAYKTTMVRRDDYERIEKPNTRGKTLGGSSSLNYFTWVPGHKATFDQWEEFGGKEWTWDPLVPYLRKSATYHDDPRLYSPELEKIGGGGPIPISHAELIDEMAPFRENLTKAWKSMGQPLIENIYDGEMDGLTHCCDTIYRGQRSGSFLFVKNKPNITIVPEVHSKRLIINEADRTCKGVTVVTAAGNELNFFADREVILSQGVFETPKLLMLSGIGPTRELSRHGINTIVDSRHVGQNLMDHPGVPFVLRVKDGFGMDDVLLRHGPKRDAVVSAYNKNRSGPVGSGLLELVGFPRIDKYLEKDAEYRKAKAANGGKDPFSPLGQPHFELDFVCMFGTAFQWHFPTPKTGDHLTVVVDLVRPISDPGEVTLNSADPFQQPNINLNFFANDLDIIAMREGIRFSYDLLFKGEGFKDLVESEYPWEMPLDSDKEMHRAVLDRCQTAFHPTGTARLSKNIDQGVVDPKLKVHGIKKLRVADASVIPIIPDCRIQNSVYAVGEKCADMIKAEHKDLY

purified protein = substrate: O=CO; experiment: purified protein; conditions: 50 mM sodium acetate pH 5.0, 25 °C, air oxygen, enzyme 14 h after purification (8-formyl FAD formed)

Cc1cc2nc3c(=O)[nH]c(=O)nc-3n(C[C@H](O)[C@H](O)[C@H](O)COP(=O)(O)OP(=O)(O)OC[C@H]3O[C@@H](n4cnc5c(N)ncnc54)[C@H](O)[C@@H]3O)c2cc1C=O [8-formyl FAD]
UV-visible absorption spectra of purified enzyme (Formate oxidase (FOx); formed in situ from bound FAD, 14 h): conversion of FAD to 8-formyl FAD within the active site of FOx

Cc1cc2nc3c(=O)[nH]c(=O)nc-3n(C[C@H](O)[C@H](O)[C@H](O)COP(=O)(O)OP(=O)(O)OC[C@H]3O[C@@H](n4cnc5c(N)ncnc54)[C@H](O)[C@@H]3O)c2cc1C [FAD]
UV-visible absorption spectra of purified enzyme (Formate oxidase (FOx); copurified cofactor, autocatalytically converted to 8-formyl FAD): conversion of FAD to 8-formyl FAD within the active site of FOx

B1: Formate oxidase (FOx) (Aspergillus oryzae RIB40) (protein)
chain: T1 sequence (Q2UD26 2-578)
Km (purified protein): 96 ± 3.1 mM | kcat (purified protein): 102 s⁻¹ | kcat/Km (purified protein): 1100 M⁻¹ s⁻¹
